Results reported in publication PMC4911086 (PLoS ONE, 2016).

Key:
[1] = molecular target: RANKL (Homo sapiens) (UniProt O14788); settings: cited from earlier work
[2] = molecular target: T1, recombinant human RANK (human, UniProt Q9Y6Q6 30-212); assay: ELISA; polyvinyl 96-well plates coated with 500 ng/well recombinant human RANK; RANKL (500 ng/mL in PBS-T with 0.1% BSA) pre-incubated with serially diluted GM-0111 for about 16 hrs at 4°C, then 1 hr at 37°C on the RANK-coated wells; bound RANKL detected with anti-RANKL antibody and HRP-conjugated anti-goat IgG, absorbance at 450 nm; settings: both partners purified
T1 construct: human RANK, recombinant, R&D Systems cat# 683-RK; The vendor's product 683-RK is, as far as I recall, an Fc chimera of the RANK extracellular domain (human IgG1 Fc, C-terminal); also called rRANK; source: bought: R&D Systems (cat# 683-RK)
T1 sequence (looked up): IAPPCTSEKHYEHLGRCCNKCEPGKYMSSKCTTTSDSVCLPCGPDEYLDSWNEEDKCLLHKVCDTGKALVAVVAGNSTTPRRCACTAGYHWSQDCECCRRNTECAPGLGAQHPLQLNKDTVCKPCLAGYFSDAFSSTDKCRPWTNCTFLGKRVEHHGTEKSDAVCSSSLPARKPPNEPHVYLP

Sequence of OPG (O00300 22-401): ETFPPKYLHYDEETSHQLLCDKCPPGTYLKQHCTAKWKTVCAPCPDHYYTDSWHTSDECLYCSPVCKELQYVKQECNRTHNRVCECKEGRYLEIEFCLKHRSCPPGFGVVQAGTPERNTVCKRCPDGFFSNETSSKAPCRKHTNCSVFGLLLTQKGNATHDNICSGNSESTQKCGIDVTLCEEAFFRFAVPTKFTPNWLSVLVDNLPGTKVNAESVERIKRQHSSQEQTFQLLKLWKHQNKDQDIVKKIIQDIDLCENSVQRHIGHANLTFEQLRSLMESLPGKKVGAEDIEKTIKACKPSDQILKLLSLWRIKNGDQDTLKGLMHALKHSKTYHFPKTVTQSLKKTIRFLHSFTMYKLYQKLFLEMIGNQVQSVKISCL

Row | Molecule | Kd [1] | binding result [2]
1 | OPG (from UniProt O00300) | 4.24 nM | –
2 | recombinant human RANKL (ligand, UniProt O14788 140-317, looked up, The vendor's product is, as far as I recall, a soluble extracellular fragment of human RANKL; also called rRANKL; source: bought: R&D Systems (cat# 390-TN)) IRAEKAMVDGSWLDLAKRSKLEAQPFAHLTINATDIPSGSHKVSLSSWYHDRGWAKISNMTFSNGKLIVNQDGFYYLYANICFRHHETSGDLATEYLQLMVYVTKTSIKIPSSHTLMKGGSTKYWSGNSEFHFYSINVGGFFKLRSGEEISIEVSNPSLLDPDQDATYFGAFKVRDID | – | binds
